Measured values published in article PMC4720418, “Experimental validation of in silico model‐predicted isocitrate dehydrogenase and phosphomannose isomerase from D ehalococcoides mccartyi” (Microbial Biotechnology, 2015).

Key:
Assay in all cases: purified protein
Format in all cases: biochemical, Dehalococcoides mccartyi
purified protein [1] = substrate: NC(=O)c1ccc[n+]([C@@H]2O[C@H](COP(=O)(O)OP(=O)(O)OC[C@H]3O[C@@H](n4cnc5c(N)ncnc54)[C@H](O)[C@@H]3O)[C@@H](O)[C@H]2O)c1; settings: D-isocitric acid as co-substrate (1 mM in standard assay), 10 mM MgCl2, 50 mM Tris-HCl pH 7.5 (standard assay; kinetics at selected pH), 30 °C, varied: cofactor
purified protein [2] = substrate: NC(=O)c1ccc[n+]([C@@H]2O[C@H](COP(=O)(O)OP(=O)(O)OC[C@H]3O[C@@H](n4cnc5c(N)ncnc54)[C@H](OP(=O)(O)O)[C@@H]3O)[C@@H](O)[C@H]2O)c1; settings: D-isocitric acid as co-substrate (1 mM in standard assay), 10 mM MgCl2, 50 mM Tris-HCl pH 7.5 (standard assay; kinetics at selected pH), 30 °C, varied: cofactor
purified protein [3] = substrate: O=C(O)C[C@H](C(=O)O)[C@@H](O)C(=O)O; settings: 0.3 mM NADP+, 10 mM MgCl2, 50 mM Tris-HCl pH 7.5 (standard assay; kinetics at selected pH), 30 °C

B1: DmIDH (KB1_0495) (Dehalococcoides mccartyi CBDB1) (protein)
chain: MYHNVTLIPGDGIGPEISEATRRVLEATGVKFNWEVVNAGADVVAEYGTPLPDMVLESIRKNKVAIKGPVTTPVGSGFRSVNVGMRKALNLYTCLRPCKTYPGVPSRYDNVDIVIVRENMEDLYAGIEFEKGSAEALRLIEFIKENKKVEIRTDSGISIKPISVFGTERIFRWAFKYAKDNNRKKVTAVHKANIMKYSDGLFLAVGRKVAEEYPEIEFEDRIVDNMTMQLVKTPTQFDILVCPNLYGDILSDLCAGLVGGLGVAPGANIGDEYALFEPTHGSAPKYKGLNKVNPMAMMLSGVLMLRYLKEEKAADKLENAIAAVIAEGKSVTYDMLSPDKQAVAVGTSQVADAIIAKMK
notes: recombinant, N-terminal 6xHis tag with TEV site (modified pET-15b), E. coli BL21(DE3), Ni-NTA and gel filtration
Km (purified protein [1]): 120 ± 40 µM
Vmax (purified protein [1]): 0.32 µmol/min/mg
kcat (purified protein [1]): 0.22 ± 0.03 s⁻¹
kcat/Km (purified protein [1]): 2000 ± 1000 M⁻¹ s⁻¹
Km (purified protein [2]): 27 ± 20 µM
Vmax (purified protein [2]): 20.8 µmol/min/mg
kcat (purified protein [2]): 14.6 ± 1 s⁻¹
kcat/Km (purified protein [2]): 540000 ± 1000 M⁻¹ s⁻¹
Km (purified protein [3]): 110 ± 10 µM
Vmax (purified protein [3]): 21.3 µmol/min/mg
kcat (purified protein [3]): 15 ± 1 s⁻¹
kcat/Km (purified protein [3]): 139600 ± 1000 M⁻¹ s⁻¹
